Test results published in US20220152104A1 (published 2022).

Target: T1, NY-ESO-1 peptide on HLA-B*40:01 (human)
T1 peptide: EFTVSGNIL
Assay: multimer staining
Source text: FIGS. 4A-4I are graphical representations of positive staining of Jurkat 76/CD8 cells transduced with B*40:01/NY-ESO-1₁₂₅₋₁₃₃ TCR genes with a cognate multimer. Jurkat 76/CD8 cells transduced with the B*40:01/NY-ESO-1₁₂₅₋₁₃₃ TCR (FIGS. 4B, 4E, and 4H) were stained with the B*40:01/NY-ESO-1₁₂₅₋₁₃₃ multimer (FIG. 4B). […], B*40:01/unexchanged multimer (FIGS. 4G, 4H, and 4I), and A*02:01/NY-ESO-1₁₅₇₋₁₆₅ TCR (clone 1G4LY; FIGS. 4C, 4F, and 4I) as well as untransduced Jurkat 76/CD8 cells (FIGS. 4A, 4D, and 4G) were employed as controls The percentage of multimer⁺ CD8⁺ cells is shown.
T cells (1×10⁵) were incubated for 30 minutes at 37° C. in the presence of 50 nM dasatinib (LC laboratories). The cells were then washed and incubated with 5-10 μg/ml of multimer for 30 minutes at room temperature, and R-phycoerythrin-conjugated AffiniPure Fab fragment goat anti-mouse IgG1 (Jackson ImmunoResearch Laboratories) was added for 15 minutes at 4° C. Next, the cells were washed three times and costained with an anti-CD8 mAb for 15 minutes at 4° C. Dead cells were finally discriminated using the LIVE/DEAD Fixable Dead Cell Stain kit.

B1: B*40:01/NY-ESO-1125-133 TCR (TCR, V domains shown)
Valpha: SQQGEEDPQALSIQEGENATMNCSYKTSINNLQWYRQNSGRGLVHLILIRSNEREKHSGRLRVTLDTSKKSSSLLITASRAADTASYFCATDRGTDKLIFGTGTRLQVFP
Vbeta: NAGVTQTPKFRVLKTGQSMTLLCAQDMNHEYMYWYRQDPGMGLRLIHYSVGEGTTAKGEVPDGYNVSRLKKQNFLLGLESAAPSQTSVYFCASSPGVGTEAFFGQGTRLTVV
binding result: recognises
